Test results published in patent US9987329B2, “Methods for treating peripheral nerve damage” (Cornell University, priority 2014, dated 2018).

Legend:
[1] = system: corneal nerves of thy1-YFP mice; test: Corneal micropocket assay (VEGF-B releasing pellet); format: in vivo, mouse
Method: A sucralfate/hydron pellet impregnated with VEGF-B (100 ng/pellet) or vehicle was implanted into a corneal micropocket in anesthetized thy1-YFP mice subjected to a partial lamellar incision parallel to the limbus. Rogers, M. S. et al., The mouse cornea micropocket angiogenesis assay, Nature protocols 2, 2545-2550 (2007). Mice were allowed to recover for a day, after which a subset received a corneal debridement that removed a circular 2-mm region of central epithelium and the underlying sub-basal nerves. The corneas were harvested 3 days later, fixed in 4% paraformaldehyde (PFA) for 30 minutes, mounted in Vectashield medium (Vector Labs H1000) as whole mounts, and nerves imaged using the AxioObserver system as described above.
Harvested corneas from thy1-YFP mice were fixed in 4% PFA for 1 hr and then stained with 4,6-diamidino-2-phenylindole (DAPI) to label nuclei before mounting. The YFP fluorescent nerves were imaged with a fluorescence microscope at the site of pellet implantation and at a site 180 degrees opposite to the pellet. Images were analyzed using Neurolucida. […] wild type and Vegf-b^−/− mouse corneas were flat mounted and fixed as described. Pan, Z., Fukuoka et al., FASEB J. 27, 2756-2767 (2013). Samples were stained with rabbit anti-β3 tubulin antibody (Abcam 18207) overnight at 4° C., followed by alexaFluor568-conjugated goat anti-rabbit IgG (Life Technologies A11011) at room temperature for 1 hr and counter-stained with DAPI.

[2] = system: corneal nerves of C57BL/6 and Vegf-b−/− mice; test: Corneal nerve regeneration after epithelial debridement, subconjunctival injection; format: in vivo, mouse; conditions: 0.5 ng subconjunctival single bolus, 7 days after debridement
Method: Wild type C57BL/6 and Vegf-b^-/- mice were subject to corneal epithelial debridement as described above or left intact. A 5 ul volume containing 0.5 ng VEGF-B^186 in PBS was injected subconjunctivally, at the lateral temporal bulbar conjunctiva, using a 10-μl micro-syringe (Hamilton Co). Equal volume of 0.1% bovine serum albumin (BSA) was used in control mice. The recovery of the corneal epithelial injury was imaged at 24, 40 and 48 hours by applying 1% fluorescein solution to the corneal surface and wounds photographed under diffuse cobalt blue light attached to a slit lamp bio-microscope (Nikon FS-3, Nikon) connected to a digital camera (Canon EOS 60D). The corneal epithelial defect areas were quantified by analyzing the images with Photoshop CS4 (Adobe). Corneas were harvested after one week for immunodetection of nerves. Possible growth of blood vessel into the cornea was monitored by slit lamp examination. […] The YFP fluorescent nerves were imaged with a fluorescence microscope at the site of pellet implantation and at a site 180 degrees opposite to the pellet. Images were analyzed using Neurolucida. […] Quantification of corneal nerves regeneration was obtained from corneal wholemount images traced and analyzed with Neurolucida 9 software. […] Central and peripheral cornea nerve densities were calculated and expressed as a percentage of control.

TG neuronal cells = test: Cell viability assay (Live/Dead) of TG neuronal cells; format: cell-based, mouse; conditions: 50 ng/ml single dose on first day of culture without serum; day 2 and 3
Method: The effect of VEGF-B on the survival of TG neuronal cells was evaluated with the Live/Dead Viability/Cytotoxicity kit (Invitrogen), as described in Pan, Z., Fukuoka et al., FASEB J. 27, 2756-2767 (2013).

[3] = system: trigeminal ganglion (TG) neuronal cells; test: Trigeminal ganglion neuronal growth assay; format: cell-based, mouse
Method: Trigeminal ganglion (TG) neuronal cells were obtained and cultured as described previously. Pan, Z., Fukuoka et al., FASEB J. 27, 2756-2767 (2013). To evaluate the effect of VEGF-B on neuronal growth, TG neuronal cells were treated with 10-100 ng/ml recombinant mouse VEGF-B^186 (R&D 767-VE-010). The VEGF-B treatments were replenished every other day. Neurite formation and growth was followed up to 3 days. […] VEGF receptors were inhibited by using neutralizing antibodies against VEGFR1 (R&D AF471), VEGFR2 (R&D MAB4431) and Neuropilin 1 (NRP1) (R&D MAB566). TG cells were incubated in a dose dependent manner with anti-VEGFR1, anti-VEGFR2 or anti-NRP1 for 1 hour prior to the addition of 50 ng/ml VEGF-B. The tyrosine kinase domains of VEGFR2 were inhibited with specific inhibitors by incubating TG neuronal cells with 10 μM SU 1498 (Sigma T4192) or 5 nM Ki 8751 (Sigma K1265) for 1 hr before adding 50 ng/ml VEGF-B. All neurite growth was imaged with an AxioObserver Z1 fluorescence microscope in the YFP channel attached to an AxioCam HRm digital camera (Zeiss) operated by AxioVision 4.0 software. Images were analyzed using Neurolucida 9 (MBF Bioscience) a quantitative nerve tracing software.

[4] = system: corneal nerves of Thy-1-YFP mice; test: Corneal nerve regeneration with combinations of VEGF-A and VEGF-B; format: in vivo, mouse; conditions: ligand administered separately, two weeks post-injury (FIG. 14)
Method: Thy-1-YFP mice were subjected to cornea epithelium debridement to ablate the superficial nerve endings that innervate the cornea Immediately after injury, the mice were treated with different combinations of VEGF-A and VEGF-B. As shown, combinations of VEGF ligands induce greater nerve regeneration in vivo.
The observed effects were also recapitulated in vivo. Thy-1-YFP neurofluorescent mice were used to induce a corneal epithelium injury that results in ablation of the superficial nerve endings of the cornea. The mice were then treated with different combinations of VEGF-A and VEGF-B, and nerve regeneration was analyzed after two weeks post-injury.

[5] = 50 ng/ml each, three days in culture (FIG. 2B)
[6] = 50 ng/ml, three days in culture (FIG. 2B)

B1: recombinant mouse VEGF-B^186 (protein, listed as Homo sapiens)
chain: MSPLLRRLLLAALLQLAPAQAPVSQPDAPGHQRKVVSWIDVYTRATCQPREVVVPLTVELMGTVAKQLVPSCVTVQRCGGCCPDDGLECVPTGQHQVRMQILMIRYPSSQLGEMSLEEHSQCECRPKKKDSAVKPDRAATPHHRPQPRSVPGWDSAPGAPSPADITHPTPAPGPSAHAAPSTTSALTPGPAAAAADAAASSVAKGGA
notes: vascular endothelial growth factor B; recombinant mouse VEGF-B186 (R&D 767-VE-010)
- innervation at sites of injury ([1]; 100 ng/pellet plus superficial corneal debridement, versus vehicle, 3 days): significantly increased innervation throughout sites of injury
- corneal nerve density or patterning ([1]; 100 ng/pellet, absence of injury, 3 days): no alteration of corneal nerve density or patterning
- nerve density at the site of pellet implantation ([1]; 100 ng/pellet, limited (focal) injury, versus vehicle): significant increased nerve density
- corneal nerve regeneration into the injured zone ([2]; Vegf-b−/− mice): confined to the peripheral cornea
- corneal nerve regeneration into the injured zone ([2]; wild-type mice): enhanced nerve regeneration in both the central and peripheral corneas
- cells surviving (neuronal viability) (TG neuronal cells): 50%
- length of neurites compared with untreated controls ([3]; 50 ng/ml VEGF-B, 3 days in culture (FIG. 1)): almost four folds greater
- neurite elongation compared with VEGF-A treatment [3, 5]: more than 2 folds
- number of branching nodes compared with VEGF-A treated neurons [3, 5]: more than 4 folds
- pattern of neurite growth (elongation and branching) ([3]; 50 ng/ml, three days in culture (FIG. 2A)): extensive elongation and branching of the neurites
- neurite elongation compared with untreated control [3, 6]: five folds higher
- number of branching nodes compared with untreated control [3, 6]: seven fold higher
- dose dependence of neurite growth induction ([3]; 10-100 ng/ml VEGF-B (FIG. 7)): dose-dependent
- most potent dose for inducing neurite elongation and branching ([3]; increasing concentrations of VEGF-B, 3 days in culture (FIG. 7)): 50 ng/mL
- nerve regeneration [4]: induced greater nerve regeneration
